Laboratory results: US20250304644A1, “PEPTIDES TRIPLE AGONISTS OF GIP, GLP-1 AND GLP-2” (BAINAN BIOTECH APS, priority 2021, published 2025)
*1 amine or outer side, *2 acyl side, *3 side chain or, on linkers, in order; H or OH if unused. Where no end group is shown, it is not given here. Side-chain parts run from the residue outwards. [ ]: non-standard residue; d: D form. The star is where a group is joined. C18 diacid = O=C(O)CCCCCCCCCCCCCCCCC(=O)*; γGlu = O=C(O)[C@H](CCC(=O)[*:2])N[*:1]; AEEA = NCCOCCOCC(=O)O; Aib = CC(C)(N)C(=O)O

Columns and labels:
Experiment in all cases: cell-based or functional assay
[1] = molecular target: T1, human GIPR (glucose-dependent insulinotropic polypeptide receptor) (human, UniProt P48546 22-466)
T1 sequence (looked up): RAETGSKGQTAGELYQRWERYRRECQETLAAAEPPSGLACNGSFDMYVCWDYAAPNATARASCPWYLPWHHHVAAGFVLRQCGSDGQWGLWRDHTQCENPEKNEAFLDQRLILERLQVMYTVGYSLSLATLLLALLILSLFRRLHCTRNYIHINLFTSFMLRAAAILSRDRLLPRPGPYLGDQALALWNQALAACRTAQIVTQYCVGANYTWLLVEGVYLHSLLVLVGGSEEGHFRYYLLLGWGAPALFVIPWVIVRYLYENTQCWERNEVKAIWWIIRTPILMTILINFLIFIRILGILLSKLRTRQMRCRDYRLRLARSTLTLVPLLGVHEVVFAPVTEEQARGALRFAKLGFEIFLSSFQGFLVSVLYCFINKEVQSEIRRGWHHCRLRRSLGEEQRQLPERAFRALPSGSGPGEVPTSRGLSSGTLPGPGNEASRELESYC

[2] = molecular target: T2, human GLP-2R (glucagon-like peptide-2 receptor) (human, UniProt O95838 1-553)
T2 sequence (looked up): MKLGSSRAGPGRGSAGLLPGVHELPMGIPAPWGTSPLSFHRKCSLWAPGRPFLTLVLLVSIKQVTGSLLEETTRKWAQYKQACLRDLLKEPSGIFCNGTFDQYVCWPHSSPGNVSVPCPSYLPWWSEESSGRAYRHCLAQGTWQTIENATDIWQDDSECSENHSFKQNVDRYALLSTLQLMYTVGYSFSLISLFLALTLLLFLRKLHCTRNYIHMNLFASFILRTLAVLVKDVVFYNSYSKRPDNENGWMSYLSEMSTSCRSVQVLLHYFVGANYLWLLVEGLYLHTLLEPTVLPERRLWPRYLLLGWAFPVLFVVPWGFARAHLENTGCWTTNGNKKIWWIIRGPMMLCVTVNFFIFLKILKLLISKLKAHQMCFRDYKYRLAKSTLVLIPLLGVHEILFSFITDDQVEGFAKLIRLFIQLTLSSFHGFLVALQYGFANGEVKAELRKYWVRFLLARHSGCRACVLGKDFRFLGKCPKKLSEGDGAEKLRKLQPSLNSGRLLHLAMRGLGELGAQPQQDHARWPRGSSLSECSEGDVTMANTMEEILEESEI

[3] = molecular target: human GLP-1R (glucagon-like peptide-1 receptor) (human, UniProt P43220 24-463)
[4] = molecular target: T3, Human N-terminally SNAP-tagged GIPR (human, UniProt P48546 22-466, SNAP tag labeled with Tag-Lite SNAP-Lumi4-Tb)
T3 sequence (looked up): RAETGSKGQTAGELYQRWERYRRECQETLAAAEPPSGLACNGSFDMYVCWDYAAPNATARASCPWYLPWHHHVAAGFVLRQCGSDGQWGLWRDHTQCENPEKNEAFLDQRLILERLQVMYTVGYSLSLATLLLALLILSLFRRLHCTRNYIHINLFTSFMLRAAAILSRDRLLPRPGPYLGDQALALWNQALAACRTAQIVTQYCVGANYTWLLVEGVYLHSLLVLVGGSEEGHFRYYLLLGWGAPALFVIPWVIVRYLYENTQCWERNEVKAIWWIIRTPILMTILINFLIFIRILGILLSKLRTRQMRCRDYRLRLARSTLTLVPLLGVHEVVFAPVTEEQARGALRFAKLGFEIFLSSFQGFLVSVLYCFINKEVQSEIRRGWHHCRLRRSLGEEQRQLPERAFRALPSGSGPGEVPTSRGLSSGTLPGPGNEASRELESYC

human SNAP-tagged GLP-2R = molecular target: T4, human SNAP-tagged GLP-2R (human, UniProt O95838 1-553, SNAP tag labeled with Tag-Lite SNAP-Lumi4-Tb)
T4 sequence (looked up): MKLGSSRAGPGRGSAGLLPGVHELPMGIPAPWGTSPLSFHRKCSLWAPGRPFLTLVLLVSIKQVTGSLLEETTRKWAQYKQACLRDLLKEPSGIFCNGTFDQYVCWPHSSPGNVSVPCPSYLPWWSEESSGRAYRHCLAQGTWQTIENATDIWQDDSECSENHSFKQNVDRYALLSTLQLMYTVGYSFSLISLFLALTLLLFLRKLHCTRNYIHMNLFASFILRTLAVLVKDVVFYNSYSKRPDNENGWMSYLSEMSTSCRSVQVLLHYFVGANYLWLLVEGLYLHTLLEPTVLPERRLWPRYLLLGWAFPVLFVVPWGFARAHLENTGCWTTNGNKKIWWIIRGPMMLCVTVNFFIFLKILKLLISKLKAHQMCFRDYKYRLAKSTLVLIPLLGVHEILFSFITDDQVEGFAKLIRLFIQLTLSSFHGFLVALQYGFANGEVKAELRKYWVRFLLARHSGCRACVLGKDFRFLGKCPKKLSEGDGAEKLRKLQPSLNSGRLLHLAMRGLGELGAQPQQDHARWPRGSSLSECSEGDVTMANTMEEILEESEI

## HADGTFTSDYST[Aib]LDKLAARDFINWLIQTKGKKNDWKHNITQK([AEEA-AEEA-γGlu-C18 diacid])-OH [Compound 27]
[1]
  EC50 (nM) GIPR: 0.562 nM
  Efficacy GIPR: 124
  pEC50 GIPR: 9.3
[2]
  EC50 (nM) GLP-2R: 3.2 nM
  Efficacy GLP-2R: 85
  logEC50 GLP-2R: 8.5
[3]
  EC50 (nM) GLP-1R: 0.05 nM
  Efficacy GLP-1R: 115
  logEC50 GLP-1R: 10.3
[4]
  Absolute hGIPR internalization (AUC): 9 AUC
  Relative hGIPR internalization (%): 24%

## HADGSFSDEMNTILDNLAARDFINWLIQTKITD (ligand) [hGLP-2]
Human SNAP-tagged GLP-2R
  Absolute hGLP-2R internalization (AUC): 48.6 AUC

## HADGTFTSDYSTILDKLAARDFINWLIQTKGKKNDWK([AEEA-AEEA-γGlu-C18 diacid])HNITQ-OH [Compound 25]
[1]
  EC50 (nM) GIPR: 0.398 nM
  Efficacy GIPR: 107
  pEC50 GIPR: 9.4
[2]
  EC50 (nM) GLP-2R: 7.9 nM
  Efficacy GLP-2R: 117
  logEC50 GLP-2R: 8.1
[3]
  EC50 (nM) GLP-1R: 0.05 nM
  Efficacy GLP-1R: 116
  logEC50 GLP-1R: 10.3
[4]
  Absolute hGIPR internalization (AUC): 13.1 AUC
  Relative hGIPR internalization (%): 35%

B1: Compound 19 (peptide)
peptide: HADGTFTSDYSTILDNLAARDFINWLIQTKGKK([γGlu-C18 diacid])-OH
modifications: N-terminus assumed
SMILES: CC[C@H](C)[C@H](NC(=O)[C@H](Cc1ccccc1)NC(=O)[C@H](CC(=O)O)NC(=O)[C@H](CCCNC(=N)N)NC(=O)[C@H](C)NC(=O)[C@H](C)NC(=O)[C@H](CC(C)C)NC(=O)[C@H](CC(N)=O)NC(=O)[C@H](CC(=O)O)NC(=O)[C@H](CC(C)C)NC(=O)[C@@H](NC(=O)[C@@H](NC(=O)[C@H](CO)NC(=O)[C@H](Cc1ccc(O)cc1)NC(=O)[C@H](CC(=O)O)NC(=O)[C@H](CO)NC(=O)[C@@H](NC(=O)[C@H](Cc1ccccc1)NC(=O)[C@@H](NC(=O)CNC(=O)[C@H](CC(=O)O)NC(=O)[C@H](C)NC(=O)[C@@H](N)Cc1c[nH]cn1)[C@@H](C)O)[C@@H](C)O)[C@@H](C)O)[C@@H](C)CC)C(=O)N[C@@H](CC(N)=O)C(=O)N[C@@H](Cc1c[nH]c2ccccc12)C(=O)N[C@@H](CC(C)C)C(=O)N[C@H](C(=O)N[C@@H](CCC(N)=O)C(=O)N[C@H](C(=O)N[C@@H](CCCCN)C(=O)NCC(=O)N[C@@H](CCCCN)C(=O)N[C@@H](CCCCNC(=O)CC[C@H](NC(=O)CCCCCCCCCCCCCCCCC(=O)O)C(=O)O)C(=O)O)[C@@H](C)O)[C@@H](C)CC
[1]
  Efficacy GIPR: 92
  pEC50 GIPR: 9.2
[2]
  EC50 (nM) GLP-2R: 31.6 nM
  Efficacy GLP-2R: 94
  logEC50 GLP-2R: 7.5
[3]
  EC50 (nM) GLP-1R: 0.06 nM
  Efficacy GLP-1R: 106
  logEC50 GLP-1R: 10.2
[4]
  Absolute hGIPR internalization (AUC): 8.9 AUC
  Relative hGIPR internalization (%): 24%
